# Laboratory results: patent publication US12269859B2, “Synthetic immune receptors and methods of use thereof” (Angeles Therapeutics, Inc., priority 2016, dated 2025)
# B1: 11245 (protein)
# chain: MALPVTALLLPLALLLHAARPDIQMTQSPSSLSASVGDRVTITCKASDHINNWLAWYQQKPGQAPKLLIYGATTLETGVPSRFSGSGSGTDYTLTISSLQPEDFATYYCQQSWNTPWTFGQGTKLEIKRLEDLKNVFPPEVAVFEPSKAEIAHTQKATLVCLATGFYPDHVELSWWVNGKEVHSGVCTDPQPLKEQPALNDSRYCLSSRLRVSATFWQNPRNHFRCQVQFYGLSENDEWTQDRAKPVTQIVSAEAWGRADCGITSASYHQGVLSATILYEILLGKATLYAVLVSALVLMAMVKRKDSRGRAKRSGSGATNFSLLKQAGDVEENPGPTSMDWIWRILFLVGAATGAHSFEQVQLQQPGAELVKPGASVKMSCKASGYAFSSYWINWMKQKPGQGLEWIGQIYPGDGDTNYNGKFKGRATLTADTSSSTAYMQLSSLTSEDSAVYFCARSITTVVGCAMDYWGQGTSVTVSSTRIQNPDPAVYQLRDSKSSDKSVCLFTDFDSQTNVSQSKDSDVYITDKCVLDMRSMDFKSNSAVAWSNKSDFACANAFNNSIIPEDTFFPSSDVPCDVKLVEKSFETDTNLNFQNLSVIGFRILLLKVAGFNLLMTLRLWSSRAKRSGSGVKQTLNFDLLKLAGDVESNPGPSRGHMTEYKPTVRLATRDDVPRAVRTLAAAFADYPATRHTVDPDRHIERVTELQELFLTRVGLDIGKVWVADDGAAVAVWTTPESVEAGAVFAEIGPRMAELSGSRLAAQQQMEGLLAPHRPKEPAWFLATVGVSPDHQGKGLGSAVVLPGVEAAERAGVPAFLETSAPRNLPFYERLGFTVTADVEVPEGPRTWCMTRKPGA
# B2: 10815 (protein)
# chain: MALPVTALLLPLALLLHAARPDIQMTQSPSSLSASVGDRVTITCKASDHINNWLAWYQQKPGQAPKLLIYGATTLETGVPSRFSGSGSGTDYTLTISSLQPEDFATYYCQQSWNTPWTFGQGTKLEIKRLEIQNPDPAVYQLRDSKSSDKSVCLFTDFDSQTNVSQSKDSDVYITDKCVLDMRSMDFKSNSAVAWSNKSDFACANAFNNSIIPEDTFFPSSDVPCDVKLVEKSFETDTNLNFQNLSVIGFRILLLKVAGFNLLMTLRLWSSRAKRSGSGVKQTLNFDLLKLAGDVESNPGPTSMDWIWRILFLVGAATGAHSFEQVQLQQPGAELVKPGASVKMSCKASGYAFSSYWINWMKQKPGQGLEWIGQIYPGDGDTNYNGKFKGRATLTADTSSSTAYMQLSSLTSEDSAVYFCARSITTVVGCAMDYWGQGTSVTVSSTREDLKNVFPPEVAVFEPSKAEIAHTQKATLVCLATGFYPDHVELSWWVNGKEVHSGVCTDPQPLKEQPALNDSRYCLSSRLRVSATFWQNPRNHFRCQVQFYGLSENDEWTQDRAKPVTQIVSAEAWGRADCGITSASYHQGVLSATILYEILLGKATLYAVLVSALVLMAMVKRKDSRGRAKRSGSGATNFSLLKQAGDVEENPGPSRGHMTEYKPTVRLATRDDVPRAVRTLAAAFADYPATRHTVDPDRHIERVTELQELFLTRVGLDIGKVWVADDGAAVAVWTTPESVEAGAVFAEIGPRMAELSGSRLAAQQQMEGLLAPHRPKEPAWFLATVGVSPDHQGKGLGSAVVLPGVEAAERAGVPAFLETSAPRNLPFYERLGFTVTADVEVPEGPRTWCMTRKPGA
# B3: 1038 (protein)
# chain: MALPVTALLLPLALLLHAARPEIVLTQSPATLSLSPGERATLSCSASSSVSYMHWYQQKPGQAPRLLIYDTSKLASGIPARFSGSGSGTDFTLTISSLEPEDVAVYYCFQGSVYPFTFGQGTKLEIKRLEGKPIPNPLLGLDSTGSGEDLKNVFPPEVAVFEPSEAEISHTQKATLVCLATGFYPDHVELSWWVNGKEVHSGVSTDPQPLKEQPALNDSRYCLSSRLRVSATFWQNPRNHFRCQVQFYGLSENDEWTQDRAKPVTQIVSAEAWGRADCGFTSESYQQGVLSATILYEILLGKATLYAVLVSALVLMAMVKRKDSRGRAKRSGSGATNFSLLKQAGDVEENPGPTSMDWIWRILFLVGAATGAHSFEQVQLQESGPGLVKPSQTLSLTCTVSGGSISTSGMGVGWIRQHPGKGLEWIGHIWWDDDKRYNPALKSRVTISVDTSKNQFSLKLSSVTAADTAVYYCARMELWSYYFDYWGQGTLVTVSSTREQKLISEEDGSGIQNPDPAVYQLRDSKSSDKSVCLFTDFDSQTNVSQSKDSDVYITDKTVLDMRSMDFKSNSAVAWSNKSDFACANAFNNSIIPEDTFFPSPESSCDVKLVEKSFETDTNLNFQNLSVIGFRILLLKVAGFNLLMTLRLWSSRAKRSGSGVKQTLNFDLLKLAGDVESNPGPSRGHMTEYKPTVRLATRDDVPRAVRTLAAAFADYPATRHTVDPDRHIERVTELQELFLTRVGLDIGKVWVADDGAAVAVWTTPESVEAGAVFAEIGPRMAELSGSRLAAQQQMEGLLAPHRPKEPAWFLATVGVSPDHQGKGLGSAVVLPGVEAAERAGVPAFLETSAPRNLPFYERLGFTVTADVEVPEGPRTWCMTRKPGA
# modifications: Synthetic polynucleotide encoding a SIR
# B4: 11240 (protein)
# chain: MALPVTALLLPLALLLHAARPDIVMTQSPATLSLSPGERATLSCRSSKSLQNVNGNTYLYWFQQKPGQSPQLLIYRMSNLNSGVPDRFSGSGSGTEFTLTISSLEPEDFAVYYCMQHLEYPITFGAGTKLEIKLEEQKLISEEDLGSGEDLKNVFPPEVAVFEPSKAEIAHTQKATLVCLATGFYPDHVELSWWVNGKEVHSGVCTDPQPLKEQPALNDSRYCLSSRLRVSATFWQNPRNHFRCQVQFYGLSENDEWTQDRAKPVTQIVSAEAWGRADCGITSASYHQGVLSATILYEILLGKATLYAVLVSALVLMAMVKRKDSRGRAKRSGSGATNFSLLKQAGDVEENPGPTSMDWIWRILFLVGAATGAHSFEEVQLVESGGGLVKPGGSLKLSCAASGYTFTSYVMHWVRQAPGKGLEWIGYINPYNDGTKYNEKFQGRVTISSDKSISTAYMELSSLRSEDTAMYYCARGTYYYGTRVFDYWGQGTLVTVSSTREQKLISEEDLGSGIQNPDPAVYQLRDSKSSDKSVCLFTDFDSQTNVSQSKDSDVYITDKCVLDMRSMDFKSNSAVAWSNKSDFACANAFNNSIIPEDTFFPSSDVPCDVKLVEKSFETDTNLNFQNLSVIGFRILLLKVAGFNLLMTLRLWSSRAKRSGSGVKQTLNFDLLKLAGDVESNPGPSRGHMTEYKPTVRLATRDDVPRAVRTLAAAFADYPATRHTVDPDRHIERVTELQELFLTRVGLDIGKVWVADDGAAVAVWTTPESVEAGAVFAEIGPRMAELSGSRLAAQQQMEGLLAPHRPKEPAWFLATVGVSPDHQGKGLGSAVVLPGVEAAERAGVPAFLETSAPRNLPFYERLGFTVTADVEVPEGPRTWCMTRKPGA
# Tested on: RAJI cells
# Test: Jurkat NFAT-GFP assay, coculture with RAJI cells
# Type: cell-based, human
# Details: overnight co-culture with RAJI cells; Table 10C
# Procedure: (B) Induction of NFAT promoter driven GFP expression. The control vector- and SIR-expressing Jurkat-NFAT-GFP cocultured for 4-24 hours with the target antigen-expressing cell line (described above) and their ability to bind to the target antigen is assayed by measuring induction of GFP expression using Flow Cytometry. Cellular supernatant is collected and assayed for the induction of cytokines (e.g., IL2).
# Jurkat NFAT-GFP Assay For Synthetic Immune Receptors. The Jurkat-NFAT-GFP cells are engineered in such a way that the IL-2 promoter, which carries NFAT binding sites, is cloned upstream of the GFP gene. These cells have been used to study signaling via TCR and CAR. The different SIRs were stably expressed in Jurkat NFAT-GFP cells by lentiviral mediated gene transfer, followed by selection with puromycin. The SIR-expressing Jurkat-NFAT-GFP cells were cocultured with the target cells at E:T ratio of approximately 1:2 for approximately 4 hours to 18 hours. When the interaction between SIRs and their target antigen results in activation of the NFAT pathway, GFP expression is induced.
# Induction of GFP expression by coculturing of Jurkat-NFAT-GFP cells expressing different SIR constructs and the different target cells was studied essentially as described previously (Wu, Roybal, Puchner, Onuffer, & Lim, 2015). GFP expression was monitored by FACS analysis. […] In panel B, Jurkat cells expressing SIR targeting CDH6 (Clone ID: 051716-J05), CD276 (Clone ID: 050516-Q06) and Her2/neu (Clone ID: 050516-I03) were incubated with SKOV3 (top) and […] (middle and bottom) cells, respectively. […] The Jurkat-NFAT-GFP cells were engineered to express different SIRs targeting other antigens and the experiment repeated upon coculture with the target cells expressing their respective target antigen. The Jurkat-NFAT-GFP (parental) cells were used as control. […] The names of different SIRs, their SEQ ID NOs, component antigen binding domains and TCR chains can be determined by reference to Tables 7A-7H. A SIR is considered positive in the assay in case the SIR expressing Jurkat-NFAT-GFP cells show greater % GFP positive cells when cultured with the target cell line as compared to parental Jurkat-NFAT-GFP cells. […] The signs +/−, +, 2+ etc. after the name of the cell lines indicate the relative degree of positivity on the Jurkat-NFAT-GFP assay as measured by the % GFP positive cells after culture of the SIR expressing Jurkat-NFAT-GFP cells with that cell line.
row,Molecule,NFAT-GFP (%)
1,B1,71.81%
2,B2,52.36%
3,B3,4.49%
4,B4,31.59%
